Source: US20220251227A1 (Eli Lilly, published 2022)

B1: Antibody I (Fab)
heavy: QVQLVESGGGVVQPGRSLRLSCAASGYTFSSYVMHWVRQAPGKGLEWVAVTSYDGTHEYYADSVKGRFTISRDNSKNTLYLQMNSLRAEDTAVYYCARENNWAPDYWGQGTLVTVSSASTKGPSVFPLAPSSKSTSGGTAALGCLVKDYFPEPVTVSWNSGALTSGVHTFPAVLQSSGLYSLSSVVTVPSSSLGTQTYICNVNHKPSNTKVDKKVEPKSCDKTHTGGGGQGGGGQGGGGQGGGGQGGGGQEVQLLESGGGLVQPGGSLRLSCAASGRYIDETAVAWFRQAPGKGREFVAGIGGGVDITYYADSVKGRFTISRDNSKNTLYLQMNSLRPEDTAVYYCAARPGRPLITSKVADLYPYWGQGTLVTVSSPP
light: DIQMTQSPSSLSASVGDRVTITCRASQDISNSLAWYQQKPGKAPKRLIYAAFSLQSGVPSRFSGSGSGTEFTLTISSLQPEDFATYYCYQYYNYPSAFGQGTKLEIKRTVAAPSVFIFPPSDEQLKSGTASVVCLLNNFYPREAKVQWKVDNALQSGNSQESVTEQDSKDSTYSLSSTLTLSKADYEKHKVYACEVTHQGLSSPVTKSFNRGEC
notes: Monovalent anti-GITR Fab; also called HC anti-GITR Fab-VHH Fusion 1 with LC
B2: Antibody II (Fab)
heavy: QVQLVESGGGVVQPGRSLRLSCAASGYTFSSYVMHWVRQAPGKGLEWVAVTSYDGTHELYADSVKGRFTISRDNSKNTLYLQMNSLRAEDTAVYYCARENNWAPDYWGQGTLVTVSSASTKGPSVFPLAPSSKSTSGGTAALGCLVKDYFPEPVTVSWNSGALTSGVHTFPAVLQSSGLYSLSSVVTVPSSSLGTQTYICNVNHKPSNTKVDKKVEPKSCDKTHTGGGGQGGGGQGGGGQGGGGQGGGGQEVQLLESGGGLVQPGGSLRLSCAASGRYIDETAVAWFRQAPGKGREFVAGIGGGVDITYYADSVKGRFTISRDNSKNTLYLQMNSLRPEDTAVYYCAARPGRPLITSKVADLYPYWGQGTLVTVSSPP
light: B1 light
notes: Monovalent anti-GITR Fab; also called HC anti-GITR Fab-VHH Fusion 2 with LC

Tests used:
Human serum albumin = biological target: T1, Human serum albumin (human, UniProt P02768 25-609); experiment: SPR, Biacore 8K, albumin immobilized on CM5, 25 C, 1:1 model
T1 construct: Bought protein, immobilized on a CM5 chip by amine coupling; also called Human SA
Description: (§1) Binding of Antibody I and Antibody II to various serum albumins is carried out on Biacore 8K instrument. The immobilization of the serum albumin to a Series S Sensor Chip CM5 (Cytiva 29149603) surface is performed according to the manufacturer's instructions (Amine Coupling Kit BR-1000-50). Briefly, carboxyl groups on the sensor chip surfaces (flow cell 1 and 2) are activated by injecting 70 μL of a mixture containing 75 mg/ml 1-Ethyl-3-(3-dimethylaminopropyl) carbodiimide hydrochloride (EDC), and 11.5 mg/ml N-Hydroxysuccinimide (NHS) at 10 μl/min. Human, cynomolgus monkey, rat, mouse, dog, pig, cow, and rabbit serum albumin are diluted in 10 mM sodium acetate pH 4.0 (BR-1003-49) at 0.8, 0.8, 0.8, 2.5, 0.8, 1, 1, and 1.5 μg/m1 then injected over the activated chip surfaces (flow cell 2, channel 1 to 8) at 10 μl/min for 100 seconds. Human serum albumin was obtained from Sigma Aldrich (St. Louis, Mo.) (Cat. No. A8763).
(§2) The serum albumins are covalently immobilized through free amines onto a carboxymethyl dextran-coated sensor chip CM5 at surface densities of 29-52 resonance units (RU) for human, cynomolgus monkey, rat, mouse, dog, pig, and cow as well as 118 resonance units (RU) for rabbit serum albumin. Excess reactive groups on the surfaces (flow cell 1 and 2) are deactivated by injecting 70 μl of 1 M Ethanolamine hydrochloride-NaOH pH 8.5.
(§3) The antibodies of Examples 1 and 2 (i.e., Antibody I and II, respectively) are diluted in HBS-EP+buffer (10 mM HEPES pH 7.6, 150 mM NaCl, 3 mM EDTA, 0.05% Polysorbate 20) at concentrations of 1000, 333.3, 111.1, 37.04, 12.35, 4.12, 1.37, 0.457, 0.152, 0.051 and 0.017 nM. 180 μl of sample are individually injected sequentially across the immobilized serum albumins on the chip's surface and dissociated for 600 sec at 60 μl/min flow rate at 25° C. The surface is regenerated by injecting 10 mM glycine-HCl pH 1.5 (BR-1003-54) at 60 μl/min for 100 sec. The resulting sensorgrams are analyzed using Biacore 8K Insight Evaluation Software (version 3.0.11.15423) 1:1 binding kinetics model fitting to calculate the binding kinetic parameters: association rate (ka), dissociation rate (kd), and equilibrium dissociation constant (KD).

Cow serum albumin = biological target: T2, Cow serum albumin (cow, UniProt P02769 25-607); experiment: as above
T2 construct: Bought protein, immobilized on a CM5 chip by amine coupling; also called Cow SA
Description: as §1, §2, §3

Rat serum albumin = biological target: T3, Rat serum albumin (rat, UniProt P02770 25-608); experiment: as above
T3 construct: Bought protein, immobilized on a CM5 chip by amine coupling; also called Rat SA
Description: as §1, §2, §3

Pig serum albumin = biological target: T4, Pig serum albumin (pig, UniProt P08835 25-607); experiment: as above
T4 construct: Bought protein, immobilized on a CM5 chip by amine coupling; also called Pig SA
Description: as §1, §2, §3

Dog serum albumin = biological target: T5, Dog serum albumin (dog, UniProt P49822 25-608); experiment: as above
T5 construct: Bought protein, immobilized on a CM5 chip by amine coupling; also called Dog SA
Description: as §1, §2, §3

[1] = biological target: T6, Cynomolgus monkey serum albumin (cynomolgus monkey, UniProt A2V9Z4 25-608); experiment: as above
T6 construct: Bought protein, immobilized on a CM5 chip by amine coupling; also called Cyno SA
Description: as §1, §2, §3

Mouse serum albumin = biological target: T7, Mouse serum albumin (mouse, UniProt P07724 25-608); experiment: as above
T7 construct: Bought protein, immobilized on a CM5 chip by amine coupling; also called Mouse SA
Description: as §1, §2, §3

human GITR [2] = biological target: T8, human GITR (human, UniProt Q9Y5U5 26-241); experiment: cell-based or functional assay
T8 sequence: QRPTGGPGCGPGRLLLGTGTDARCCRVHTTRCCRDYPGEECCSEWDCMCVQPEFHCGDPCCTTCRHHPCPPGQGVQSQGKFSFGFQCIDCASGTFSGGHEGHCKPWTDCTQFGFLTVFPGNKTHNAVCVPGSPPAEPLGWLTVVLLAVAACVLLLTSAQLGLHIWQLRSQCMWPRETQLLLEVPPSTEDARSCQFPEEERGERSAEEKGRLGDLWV

cynomolgus monkey GITR [3] = biological target: T9, cynomolgus monkey GITR (cynomolgus monkey); experiment: flow cytometry on Jurkat cyno GITR/NFkBluc cells, anti-kappa PE detection, geometric mean of 3
T9 construct: whole, on cells; Stood on Jurkat cyno GITR/NFkBluc cells; also called cyno GITR
Description: Jurkat human GITR/NFkB-Luc2 and Jurkat cynomolgus monkey GITR/NFkBluc cells are resuspended in FACS buffer (PBS+1% BSA+0.01% sodium azide) at 1 million cells/mL and 5 μl Fc block/mL (BioLegend) is added and incubated at 4° C. for 20 min. Cells are washed with FACS buffer and resuspended at 1e6 cells/mL in FACS buffer and added to a polypropylene 96-well plate at 100 μl/well for 100,000 cells/well. 100 μl/well of 2X antibody dose titrations diluted in FACS buffer are added to cells and incubated 45 minutes at 4° C. Cells are washed twice with 200 μl/well FACS buffer and resuspended in 12.5 μg/mL anti-human Ig light chain kappa/PE secondary antibody (Invitrogen #PA1-74408) in FACS buffer and incubated for 45 minutes at 4° C. Cells are washed twice with 200 μl/well FACS buffer and resuspended in 200 μl FACS buffer. Samples are read on a Millipore EasyCyte Cytometer and median fluorescence intensity values are calculated using GuavaSoft 3.3 InCyte software. EC₅₀ values are calculated for each of 3 experiment replicates and the EC₅₀ Geometric Mean +/−Error (Delta Method) is calculated from these 3 results. The cell binding results shown in Table 5 indicate that both Antibody I and Antibody II bind potently to human GITR and cynomolgus monkey GITR (“cyno GITR”).

human GITR [4] = biological target: T8, human GITR; experiment: flow cytometry on Jurkat human GITR/NFkB-Luc2 cells, anti-kappa PE detection, geometric mean of 3
Description: Jurkat human GITR/NFkB-Luc2 cells (CS184004) were purchased from Promega and maintained in RPMI1640 media+10% FBS (HyClone SH30070.3)+400 μg/mL hygromycin B+600 μg/mL G418.
Jurkat human GITR/NFkB-Luc2 and Jurkat cynomolgus monkey GITR/NFkBluc cells are resuspended in FACS buffer (PBS+1% BSA+0.01% sodium azide) at 1 million cells/mL and 5 μl Fc block/mL (BioLegend) is added and incubated at 4° C. for 20 min. Cells are washed with FACS buffer and resuspended at 1e6 cells/mL in FACS buffer and added to a polypropylene 96-well plate at 100 μl/well for 100,000 cells/well. 100 μl/well of 2X antibody dose titrations diluted in FACS buffer are added to cells and incubated 45 minutes at 4° C. Cells are washed twice with 200 μl/well FACS buffer and resuspended in 12.5 μg/mL anti-human Ig light chain kappa/PE secondary antibody (Invitrogen #PA1-74408) in FACS buffer and incubated for 45 minutes at 4° C. Cells are washed twice with 200 μl/well FACS buffer and resuspended in 200 μl FACS buffer. Samples are read on a Millipore EasyCyte Cytometer and median fluorescence intensity values are calculated using GuavaSoft 3.3 InCyte software. EC₅₀ values are calculated for each of 3 experiment replicates and the EC₅₀ Geometric Mean +/−Error (Delta Method) is calculated from these 3 results. […]

human GITR [5] = biological target: T8, human GITR; experiment: cell-based or functional assay; remark: listed apart in the source
Rabbit serum albumin = biological target: T10, Rabbit serum albumin (rabbit, UniProt P49065 25-608); experiment: SPR, Biacore 8K, albumin immobilized on CM5, 25 C
T10 construct: Bought protein, immobilized on a CM5 chip by amine coupling at 118 RU; also called Rabbit SA
Description: as §1, with “Human serum albumin was obtained from Sigma Aldrich (St. Louis, Mo.) (Cat. No. A8763).” left out
as §3, with “180 μl of sample are individually injected sequentially across the immobilized serum albumins on the chip's surface and dissociated for 600 sec at 60 μl/min flow rate at 25° C. The surface is regenerated by injecting 10 mM glycine-HCl pH 1.5 (BR-1003-54) at 60 μl/min for 100 sec.” left out

human GITR [6] = biological target: T8, human GITR; experiment: cell-based or functional assay; remark: listed apart in the source
cynomolgus monkey GITR [7] = biological target: T9, cynomolgus monkey GITR; experiment: cell-based or functional assay

Binder | Kd (Human serum albumin) | koff (Human serum albumin) | kon (Human serum albumin) | Kd (Cow serum albumin) | koff (Cow serum albumin) | kon (Cow serum albumin) | Kd (Rat serum albumin) | koff (Rat serum albumin) | kon (Rat serum albumin) | Kd (Pig serum albumin) | koff (Pig serum albumin) | kon (Pig serum albumin) | Kd (Dog serum albumin) | koff (Dog serum albumin) | kon (Dog serum albumin) | Kd [1] | koff [1] | kon [1] | Kd (Mouse serum albumin) | koff (Mouse serum albumin) | further results
B1 | 0.25 nM | 6.5e-05 s⁻¹ | 260000 M⁻¹ s⁻¹ | 460 nM | 0.091 s⁻¹ | 200000 M⁻¹ s⁻¹ | 44 nM | 0.007 s⁻¹ | 160000 M⁻¹ s⁻¹ | 100 nM | 0.013 s⁻¹ | 120000 M⁻¹ s⁻¹ | 20 nM | 0.0035 s⁻¹ | 170000 M⁻¹ s⁻¹ | 4.4 nM | 0.00082 s⁻¹ | 190000 M⁻¹ s⁻¹ | 53 nM | 0.0094 s⁻¹ | kon (Mouse serum albumin): 180000 M⁻¹ s⁻¹; IC50 nM GeoMean, inhibition of GITRL co-stimulation of T cell proliferation (human GITR [2]): 4.76 nM; EC50 (cynomolgus monkey GITR [3]): 3.06 nM; EC50 (human GITR [4]): 6.8 nM; IC50 nM Mean, restoration of regulatory T cell suppression of effector T cell proliferation in the presence of GITRL (human GITR [5]): 4.69 nM; binding result (Rabbit serum albumin): no binding (tested: 1000 nM highest concentration tested); IC50 nM GeoMean, inhibition of GITRL stimulation of Jurkat GITR/NFkB luciferase cells (human GITR [6]): 4.1 nM; IC50 nM GeoMean, inhibition of GITRL stimulation of Jurkat GITR/NFkB luciferase cells (cynomolgus monkey GITR [7]): 2.27 nM
B2 | 0.4 nM | 7.8e-05 s⁻¹ | 190000 M⁻¹ s⁻¹ | 430 nM | 0.087 s⁻¹ | 200000 M⁻¹ s⁻¹ | 51 nM | 0.0073 s⁻¹ | 140000 M⁻¹ s⁻¹ | 99 nM | 0.012 s⁻¹ | 120000 M⁻¹ s⁻¹ | 20 nM | 0.0034 s⁻¹ | 170000 M⁻¹ s⁻¹ | 5.9 nM | 0.00087 s⁻¹ | 150000 M⁻¹ s⁻¹ | 42 nM | 0.0096 s⁻¹ | kon (Mouse serum albumin): 230000 M⁻¹ s⁻¹; IC50 nM GeoMean, inhibition of GITRL co-stimulation of T cell proliferation (human GITR [2]): 1.84 nM; EC50 (cynomolgus monkey GITR [3]): 2.34 nM; EC50 (human GITR [4]): 3.25 nM; IC50 nM Mean, restoration of regulatory T cell suppression of effector T cell proliferation in the presence of GITRL (human GITR [5]): 2.72 nM; binding result (Rabbit serum albumin): no binding (tested: 1000 nM highest concentration tested); IC50 nM GeoMean, inhibition of GITRL stimulation of Jurkat GITR/NFkB luciferase cells (human GITR [6]): 1.68 nM; IC50 nM GeoMean, inhibition of GITRL stimulation of Jurkat GITR/NFkB luciferase cells (cynomolgus monkey GITR [7]): 1.26 nM
